Data on 41 sequences can be found in the nanobody polyreactivity screen of Harvey et al. (2022).

The series can be described thus: yeast display, Sf9 membrane polyspecificity reagent, FACS + sequencing; frameworks hold sequencing errors. In short, it runs like this: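 Nanobodies from a synthetic yeast display library (Saccharomyces cerevisiae BJ5465), induced 36–48 hours with galactose, were stained 1 hour at 4 °C with 10% biotinylated, detergent-solubilized Sf9 membrane reagent, enriched on streptavidin microbeads, then FACS-sorted. Anti-HA (expression) and streptavidin (reagent binding) fluorescence set low and high (top ~1%) gates. Polyreactivity labels come from the gate of origin. Genes were colony-PCR amplified, MiSeq 2 × 250 sequenced and filtered by CDR length.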
In the case of “QLQLVESGGGLVQAGGSLRLSCAASGSTFATYAMGWYRQAPGKESELVAVITRGGSTYYADSVKGRFTISRDNAKNTVYLQMNSLKPEDTAVYYCAAKAYTYYARIGFDYWGQGTQVTVSS”, the “polyreactivity (PSR sort gate)” value is “high polyreactivity”.

With “QLQLVESGGGLVQAGGSLRLSCAASGSTFGSNAMGWYRQAPGKERELVAAISTSSGSTYYAVSVKGRFTISRDNAMNTVYLQMNSMKPEDTAVYYCNADRHYVPYYSRPRYIPYDYWGQGTQVTVSS”, the “polyreactivity (PSR sort gate)” value is recorded as “high polyreactivity”.

“QLQLVESGGGLVQAGGSLRLSCAASGSTFNYNAMGWYRQAPGKEREFVAAISRSGGSTSYADSVKGRFTISRDNAKNTVYLQMNSLKPEDTAVYYCAAYYRKTGYDYWGQGTQVTVSS”: the “polyreactivity (PSR sort gate)” value was “high polyreactivity”.

Turning to “QLQLVESGGGLVQAGGSLRLSCAASGSTFSVYAMGWYRPAPGKERELVAAISSGGNTKYADSVKGRFTISRDNAKNTVYLQMNSLKPEDTAVYYCNADSQRPAYWDGYWGQGTQVTVSS”, the “polyreactivity (PSR sort gate)” value is on record as “low polyreactivity”.

For “QLQLVESGGGLVQAGGSLRLSCAASGSTYATYTMGWYRQAPGKERELVAAISVSGSRTYYADSVKGRFTISRDNAKNTVYLQMNSLKPEDTAVYYCNADPPVKLYLYDYWGQGTQVTVSS”, the “polyreactivity (PSR sort gate)” value is “high polyreactivity”.

Turning to “QLQLVESGGGLVQAGGSLRLSCAASVRTFQNYAMGWYRQAPGKEREFVAAITWRVGTTYYADSVKGRFTISRDNAKNTVYLQMNSLKPEDTAVYYCAARSRTVRYDYWGQGSQVTVSS”, the “polyreactivity (PSR sort gate)” value is “high polyreactivity”.

For the sequence “QLQLVESGGGLVQAGGSLRLSCAATGSTFYDNAMGWYRQAHGKERELVARIRWSGVRTYYADSVKGRFTISRDNAKNTVYLQMNSLKPEDTAVYYCAAGRPRPHWWSLDYYYWGQGTQVTVSS”, the “polyreactivity (PSR sort gate)” value is recorded as “low polyreactivity”.

For the sequence “QLQLVESGGGLVQAGGSLRLSCAGSGSIFVGYAMGWYRQAPGKARELVAAISTRGGSTYYADSVKGRFTISRDNAKNTVYLQMNSLKPEDTAVYYCAADYLDSTYGYVYGWDDYWGQGTQVTVSS”, the “polyreactivity (PSR sort gate)” value is on record as “low polyreactivity”.

In the case of “QLQLVESGGGLVQAGGSLRLSCAPSGSTFESYAMGWYRQSPGKERELVAAISSSGGSTYYADSVKGRFTISRENAMNTVYLEMYRLIPEDTAVYYCAAPTFSRYYYWGQGTQVTVSS”, the “polyreactivity (PSR sort gate)” value is “high polyreactivity”.

Turning to “QLQLVESGGGLVQAGGSLRLSCASSGRIFRYNAMGWYRQAPGKERELVAVISGSGGSTYYADSVKGRFTISRDNAKNTVYLQMNSLKPEDTAVYYCAAQFHVSWYNYWGQGTQVTVSS”, the “polyreactivity (PSR sort gate)” value is given as “low polyreactivity”.

On to “QLQLVESGGGLVQAGGSLRLTCAASGIIFAYNARGWYRQAPGKERELVATITDSRGSTSYADSVKGRFTISRDNAKNTVYLQMNSLKPEDTAVYYCAVLPVYWYWRNYVYLSGYDYWGQGTQVTVSS”, for which the “polyreactivity (PSR sort gate)” value is reported as “low polyreactivity”.

Take “QLQLVESGGGLVQAGGSLRLTCAASGSIIWVYAMGWYSQAPGKEWELVAAITSGVSTYYADSVKGRFTISRDHAKNTVSFQMISLKPEDTAVYYCAVVGGFRWIRMEYWGQGTQVTVSS”: the “polyreactivity (PSR sort gate)” value was “low polyreactivity”.

“QLQLVESGGVLVQAGASLRLSCAATVSTFIYYAMGWYRQAPGKEREVVAAISKRGGNTYYADSVKGRFTISRDNAKNTVYLQMNSLKPEDTAVYYCAARVYGTSRRYYSWGQGTQVTVSS”: the “polyreactivity (PSR sort gate)” value is recorded as “high polyreactivity”.

For “QLQLVESGRGLVQAGGSLRISCDASGSTFRRNAMGWYRPAPGKERELVAAITRGGGSTYYADSVKGRLTISRDNAKNTVYLQMNSLKPDDTAVYYCAAQISATRETMDYWGQGTQVTVSS”, the “polyreactivity (PSR sort gate)” value was “high polyreactivity”.

As to “QLQLVESGRGLVQAGGSLRLSCAASGLIFGNYAKRSYRQPPGKESELVAAITSTGITYYADSVKGRFTISRDNAKNTVYLQMTSLKPEDTAVYYCAAASRFHPDRGGYWGQGTQVTVSS”, the “polyreactivity (PSR sort gate)” value is on record as “low polyreactivity”.

On to “QLQLVESGRGLVQAGVSLRLSCAASGFIFEDYAMGCYRTAPGNDRELVAAISRRGGSTYYADSVKGRFTISRYNAKKTVYLQMNSLKPEDTAVYYCAAYYPYSGKGGYDYWGQGTQVTVSS”, for which the “polyreactivity (PSR sort gate)” value was “high polyreactivity”.

Turning to “QLQLVETGGGLVQAGGSLRLSCAASGRIFQYYVMGWYRQAPGKERELVAAITSGGSTYYADSVKGRFTISRDNAKNTVYLQMNSLKPEDTAVYYCAAGYWYNFDYWGQGTQVTVSS”, the “polyreactivity (PSR sort gate)” value is on record as “high polyreactivity”.

Regarding “QLQLVQSGGGLVQAGGSLRLSCAASGRIFFKYVKGWYRQAPGKERELVAAISSAGSTYYADSVKRRFTISRDNAKNTVYLQMNSLQPEDTAVYYCATYYSAINYGWSKTILYDYWGQGTQVTVSS”, the “polyreactivity (PSR sort gate)” value was “low polyreactivity”.

Consider “QLQRVESGGGLVQAGGSLRLSCAASGITYRYYVMGWYRQAPGKETQLVAAITSGVSTYYADSVKGRFTISRDNAKNTVYLELNSLKPEDTAVDYCAADEPWTYYLYGKMYYWGQGTQVTVSS”, for which the “polyreactivity (PSR sort gate)” value was “high polyreactivity”.

As to “QLQRVESGGGLVQAGGSLRLSCAASGSIFSPYAMGWYRQAPGKERELVAAISTRGGNTYYADSVKGRFTISRDNAKNTVYLQMNSLKPEDTAVYYCARKIRREGRYDYWGQGTQVTVSS”, the “polyreactivity (PSR sort gate)” value is recorded as “high polyreactivity”.

For “QVELVESAGGLVQAGGSLRLSCAGSGSTFEYNAMGWYRQGPGKERELVASSTNYADSVKGRFTISRDNAKNTVYLKMNSLKPEDTAVYYCAREQGVNRYHDYWGQGTQVTVSS”, the “polyreactivity (PSR sort gate)” value is recorded as “low polyreactivity”.

Consider “QVELVESGGGLVQAGGSLRLSCAASGITLRHYTMGWYRQAPGKVRELVATISRSGGRTYYADSVKGRFTISRDIAKNTVYLQMNSLKPEDTAFYYCARQFWRHWYGYWGQGTQVTVSS”, for which the “polyreactivity (PSR sort gate)” value is “high polyreactivity”.

In the case of “QVELVESGGGLVQAGGSLRLSCAASGYTFRFNAMGWYRQAPGKEREFVAAIDFGGAGTYYADSVKGRFTISRDNAKNTVYLQMNSLKPEDTAVYYCNARDGVTTEFDYWGQGTQVTVSS”, the “polyreactivity (PSR sort gate)” value was “low polyreactivity”.

In the case of “QVELVESGGGLVQPGGRLRLSCAASGFTFNYYAMGWYRQAPGKEREFVAAISRGGGRTYYADSVKGRFTISRDNAKNTVYLQMNSLKPEDTAVYYCAAQSVPYAYRLASYDYWGQGTQVTVSS”, the “polyreactivity (PSR sort gate)” value is “high polyreactivity”.

As to “QVELVVSGGGLVQAGGSLRLSCAAYGSIFLGNAMGWYRQAPGKEREFVAGIRGSAGTTSYADSVKGRFTISRDNAKNPGYLQMNSLKPEDTAVYYCAARPRHSDGYYYWGQGTEVTVSS”, the “polyreactivity (PSR sort gate)” value is “high polyreactivity”.

Regarding “QVHHVESAGGLVQAGGSLRLICAASGSTFDYYAMGWYRQEPGKERELLAGIDSAGSTNYADSVKGRFTISRDNAKNTVYLQMNSVKTGTYRGLYCNVGKTITTYAFPTFDYWGQGSQVTVSS”, the “polyreactivity (PSR sort gate)” value is on record as “low polyreactivity”.

In the case of “QVHHVESGGGLVQAGGSLRLSCAASGFIFVHNAMGCYSQAPGKERELVAAIRSRGGSTYYADSVKGRFTISRDNAKNTVYLQMNRLKPEDTAGYYCAADGAVVSSSRKFGYWGQGTQVTVSS”, the “polyreactivity (PSR sort gate)” value was “low polyreactivity”.

With “QVHHVESGGGLVQAGGSLRLSCAASGFTLGWYAMGWYRQAPGKERELVAAISSSGGSTYYADSVKGRFTISRDNAKNTVYFQMNSLKPEDTAVYFCAASSAYYRYGYGQFDYWGQGTQVTVSS”, the “polyreactivity (PSR sort gate)” value is “high polyreactivity”.

“QVHHVESGGGLVQAGGTLRLSCSASGSTFWANAMGWYRQQPGKEWEFVARITYSCGSTYYADSVKGRFTISRDNAKNTVYLQMNSLIREDTAVYYCAAELPGKLVYWGQGSQVTVSS”: the “polyreactivity (PSR sort gate)” value is “low polyreactivity”.

Take “QVHIVDSCGGLVKAGGSLRLSSAASGSIFHPYTMVWYRQAPGKEMELVAGISQSTDSTYYADSLKGRFTISRDYAKTTVYFQMISLKPEDTAVYYCNRVYDLPLSVVEVDYWGQGTQVTVSS”: the “polyreactivity (PSR sort gate)” value is “low polyreactivity”.

In the case of “QVHIVESGEVIVQAGGSLRLSCDASGFTIIQYAMGWYRQAPGKERELVAAISVSGGSTYYADSVKGRFTISRDNAKNTVYLQMNSLKTEDTAVYYCATYGFHSIGSIFEYEYWGQGTQVTVSS”, the “polyreactivity (PSR sort gate)” value is “high polyreactivity”.

On to “QVHIVESGGGLVQAGGSLRLSCAASGFTFFSNAMGWYRQAPGKQRELVASISASGSGTYYAVSVKGRFTISRDNAKNTFYLQMNSLKPDDTAVYYCSTRVGKILTTKYGYWGQGTQVSVSS”, for which the “polyreactivity (PSR sort gate)” value is on record as “high polyreactivity”.

As for “QVHLEESGGCLVQAGGSLRLSCAASGLFARNAMGWYRQAPGKERELVAAINRSGGSTYYADSVKGPFTISRDNAKNTVYLQMKSLKPEDTAVYYCNQAFTHTKDLSPIAYEYVFWGQGTQVTVSS”, the “polyreactivity (PSR sort gate)” value was “low polyreactivity”.

For “QVHLEESGGGLVQAGGSLRLSWAASGATFSNYTMGWDRQAPGNERELVAAISRTGGSTYYADSVNGRFTISRDNAKNHVYLQISSLEPEDNAVYYCAAICYVGRYYYWGQGNQVTVSS”, the “polyreactivity (PSR sort gate)” value was “high polyreactivity”.

Consider “QVHLLDSVGGLVQAGGSLRLSCAACGRIVGTNAMGWYRQAPGKERELVATITRGGGNTYYADSVKGRFTISRDNAKNTVYLQLNSLKPEDTAGYDCAAKFHRFAWYSHYAYWGQGTQVTVSS”, for which the “polyreactivity (PSR sort gate)” value is given as “low polyreactivity”.

As to “QVHLLESGGGLVQAGGSLRLSCAASGRTFYDYTMGWYRQAPGKERELVAVISKRGGSTYYADSVKGRFTISRDNAKNTVYLQMNSLKPEDTAVYYCAAKSGRNVYQKVDYWGQGTQVTVSS”, the “polyreactivity (PSR sort gate)” value is given as “high polyreactivity”.

With “QVHLQESGDGLVQPVGSQRLSCAASGYISGNYYMGWYRQAPGTERELVAGIDAFGSSTNYADCVKGRFTISRYNAKNSVYLQMYRLKPEDTAVYYCAAPPDGDRLFSYWGQGTQVTVSS”, the “polyreactivity (PSR sort gate)” value is listed as “low polyreactivity”.

With “QVHLQESGGGLVQAGGSLRLSCAASGNIVDADIMGWYRQAPGKERELVASITDGGSTNYADSVKGRFTISRDNAKNTVYLQMNSLKPEDTAVYYCAAIGYPDIPTYFDYDSEYFYWGQGTQVTVSS”, the “polyreactivity (PSR sort gate)” value is recorded as “low polyreactivity”.

With “QVHLQESGGGLVQAGGSLRLSCAASGNNSPVGVLGRYRQAPGKERELVATINFGGSSYYADSVKGRFTISRDNAKNTVYLQMNSLKREDTAVYYFAYCGQGTQVTVSS”, the “polyreactivity (PSR sort gate)” value was “low polyreactivity”.

Regarding “QVHLQESGVVLMQARGNLRMSCAASGYISTQYHMDWYRQAPGKERELVARIDYGAITNYADSVKGRFTIRRDNAKNTVYLQMTSLKPEDTAVYYCAVYSGDDYYHDYWGHGTQVTVSS”, the “polyreactivity (PSR sort gate)” value is “low polyreactivity”.

For “QVHLQESRGGLVQAGGSLRLSCAASGIIFDNPNMGCYRQAPGKERELVATINSGATTNYADSVKGRFTISRDNAKNTVYLQMNSLIPEDTAVYYCAVDLSPTYFYYWGQGTQVTVSS”, the “polyreactivity (PSR sort gate)” value is reported as “high polyreactivity”.
